Our source for the ELISA signal values is patent US20230080865A1.

For assay [1], the target named is AEG::SOE2 chimeric recombinant protein. Nature of the assay: ELISA, AEG::SOE2 coated on wells; reagent 1:1000. (In general: ELISA stands for enzyme-linked immunosorbent assay.)
Assay [2] concerns the target AEG::SOE3 chimeric recombinant protein. The assay can be described thus: ELISA, AEG::SOE3 coated on wells; reagent 1:1000.

Take “secondary peroxidase-conjugated goat anti-mouse IgG (antibody)”: the values for the ELISA signal in assay [1] and in assay [2] were 0.11 and 0.111, respectively.
